According to patent publication CN114560934A:

B1: β-BGT单克隆抗体株2B10E7 (antibody)
VH: LTMDFGLSWVFLVLTLKGVKCEVQLVESGGGLVKPGGSLKLSCAASGFAFSTSDISWVRQTPEKRLEWVTYISNGAGNTYNPDTDKGTFTISRDNAKNTLYVQMSSLKSEDTAMYYCARHNASSLQFAYWGQGTLVTVSAVKTTPPSVYPLAPVCGD
VL: DIVLTQSPASLAVSLGQRATISYRDSKSVSRSGYSYMHWNQQKPGQPPRLLIYLVSYLESGVPARFSGSGSGTDFTLNIHPVEEEDAATYYCQHTRELTRSEGGPSWKLNGLMLHQLYP
B2: β-BGT单克隆抗体株3B10B7 (antibody)
VH: LTMNFGLSWVFLVLTLKGVKCVVQLLESGRGLVKPGGSLKLSCAASGFAFSTYDTSWVRQTPEKRLEWVTYTSRGAGNTYYPDTVKGRFTISRDNAKNTLYVQMSSLKSEDTAMYYCARQSAWSLPIDYWGQGTLVTVSAAKTTPPSVYPLAPVCGG
VL: DIVMTQTPASLAVSLGQRATISYRTSKRVTTSGYSYMHWNQQKPGQPPRLLIYLASILESGVPARFSGSGSGTDFTLNIHPVEEEDAATYYCQHISELIRSEGGPSWKSNGLMLHQLYP

Target: β-银环蛇毒素 (银环蛇) (UniProt P00617)

Binder | 检测限 [ng/mL]
B1 | 20
B2 | 20
